4 molecules from patent publication US20230192831A1 can be followed below.

B1: H4H2889N (antibody, human IgG4, V domains shown)
VH: QVQLQESGPGLVKPSETLSLTCTVSGGSISNSYWSWIRQPPGKGLEWIGYIYYSGNTNYNPSLKSRVTISVDTSKNQFSLKLSSVTAADTAVYYCARVNDYSNYDSYYYGMDVWGQGTTVTVSS
VL: AIQMTQSPSSLSASVGDRVTITCRASQGIRNDLGWYQQKPGKAPKLLIYAASSLQSGVPSRFSGSGSGTDFTLTISSLQPEDFATYYCLQDYNYPPTFGQGTKVDIK
B2: H4H2780N (antibody, human IgG4, V domains shown)
VH: EVQLVESGGGLVKPGGSLRLSCAASGFTFSTYSMNWVRQAPGKGLEWVSSISSGSSYIYYTDSVKGRFTISRDNAKNSLYLQMNSLRAEDTAVYYCARFGSYYYFGFDVWGQGTTVTVSS
VL: DIQMTQSPSSLSASVGDRVTITCRASQGISNYLAWYQQKPGKVPKLLIFSASTLQSGVPSRFSGSGSGPDFTLTVSSLQPEDVATYYCQKYNSAPFAFGPGTKVDIK
B3: H4H2783N2 (antibody, human IgG4, V domains shown)
VH: EVQLLESGGGLVQPGGSLRLSCAASGFTFSSYVMNWVRQAPGKGLEWVSAISGSGGSTYYADSVKGRSTISRDNSKNTLYLQMNSLRAEDTAIYYCAKGDIAAIVFDAFDIWGQGTVVTVSS
VL: DIQMTQSPSSLSASVGDRVTITCQASQDISSALNWYQHKPGKAPKLLIYDASYLETGVPSRFSGSGSGTDFTFTISSLQPEDIATYYCQQYDNLPYTFGQGTKLEIK
B4: H4H6269P (antibody, human IgG4, V domains shown)
VH: QVQLQESGPGLVKPSQTLSLTCTVSGGSISSGGYYWTWIRQHPGKGLEWIGYIYYSGSTYYNPSLKSRVTMSVDTSKNQFSLKLSSVTAADTAVYYCARLLDFDYWGQGTLVTVSS
VL: B1 VL with T69R, T85S, Y92H, P96L, Q100G, D105E

Numbering of substitutions follows the chain as printed.

The target of the first assay is recombinant human GREM1 (hGREM1-His; C-terminal 10His tagged, R&D, #5190-GR) (human) (UniProt O60565). As to the kind of experiment: cell-based or functional assay.
Chain of recombinant human GREM1 (hGREM1-His; C-terminal 10His tagged, R&D, #5190-GR) (human) (O60565 other isoform, or with tags, fused parts or gaps limits assumed, form in doubt): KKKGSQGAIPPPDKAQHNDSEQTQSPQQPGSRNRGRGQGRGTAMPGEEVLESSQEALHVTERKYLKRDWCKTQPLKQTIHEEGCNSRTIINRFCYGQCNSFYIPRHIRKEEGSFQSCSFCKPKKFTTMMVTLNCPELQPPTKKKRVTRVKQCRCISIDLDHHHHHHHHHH
Regarding B1, the IC50 [M], W-20-17/BRE-luc luciferase bioassay, 100 pM hBMP4 and 10 nM hGREM1-His was 1.2e-09 M; the hGREM1-His Inhibition IC50, M; W-20-17 cell differentiation assay (alkaline phosphatase) worked out at 5.4 nM.

On to B2, for which the IC50 [M], W-20-17/BRE-luc luciferase bioassay, 100 pM hBMP4 and 10 nM hGREM1-His came out at 49.

In the case of B3, the IC50 [M], W-20-17/BRE-luc luciferase bioassay, 100 pM hBMP4 and 10 nM hGREM1-His was determined as 1.3e-09 M; the hGREM1-His Inhibition IC50, M; W-20-17 cell differentiation assay (alkaline phosphatase) came to 5.6 nM.

For a further assay the target is unchanged. The assay is described as follows: BLI Octet, captured mAb, 100 nM GREM1.
Take B1: the Binding Signal with 30 sec Association (nm) stood at 0.2 nm and the Binding Signal with 300 sec Association (nm) stood at 0.46 nm.

Consider B4, for which the Binding Signal with 30 sec Association (nm) was determined as 0.15 nm and the Binding Signal with 300 sec Association (nm) was found to be 0.6 nm.

For B2, the Binding Signal with 30 sec Association (nm) was determined as 0.13 nm and the Binding Signal with 300 sec Association (nm) came to 0.58 nm.

In the case of B3, the Binding Signal with 30 sec Association (nm) worked out at 0.29 nm and the Binding Signal with 300 sec Association (nm) stood at 0.47 nm.

For the next assay the target is unchanged. The assay is described as follows: BLI Octet, captured mAb, 100 nM GREM1 without vs with 5 uM heparin.
For the molecule B1, the Reduction in Signal from Heparin at 30 sec came out at 0.15 nm and the Reduction in Signal from Heparin at 300 sec was 0.02 nm.

On to B4, for which the Reduction in Signal from Heparin at 30 sec was found to be 0.01 nm and the Reduction in Signal from Heparin at 300 sec came out at 0.08 nm.

In the case of B2, the Reduction in Signal from Heparin at 30 sec was 0 nm and the Reduction in Signal from Heparin at 300 sec was 0 nm.

B3: the Reduction in Signal from Heparin at 30 sec stood at 0.28 nm and the Reduction in Signal from Heparin at 300 sec was 0.18 nm.

A further assay has the same target. As to the kind of experiment: BLI Octet, captured mAb, 100 nM GREM1 + 5 uM heparin.
Consider B1, for which the Binding Signal with 30 sec Association (nm) was 0.05 nm and the Binding Signal with 300 sec Association (nm) came to 0.44 nm.

For B4, the Binding Signal with 30 sec Association (nm) came to 0.14 nm and the Binding Signal with 300 sec Association (nm) amounted to 0.52 nm.

Consider B2, for which the Binding Signal with 30 sec Association (nm) is 0.13 nm and the Binding Signal with 300 sec Association (nm) was found to be 0.58 nm.

For the molecule B3, the Binding Signal with 30 sec Association (nm) came to 0.01 nm and the Binding Signal with 300 sec Association (nm) is 0.29 nm.
